Source: paper PMC8713982, “Structure and RNA template requirements of Arabidopsis RNA-DEPENDENT RNA POLYMERASE 2”

Target: T1, TF-RDR2-RRM (Arabidopsis thaliana, UniProt O82504 1-100)
T1 sequence: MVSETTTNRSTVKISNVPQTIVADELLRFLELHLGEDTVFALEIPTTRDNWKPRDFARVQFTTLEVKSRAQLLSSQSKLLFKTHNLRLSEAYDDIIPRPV
Experiment: EMSA; protein 1, 3, 9 uM; RNA 2 uM; 2 mM Mg2+; 25 mM Hepes-KOH pH 7.6, 50 mM NaCl, 2 mM MgCl2, RNase inhibitor, 30 min room temperature; 6% native PAGE
Settings: protein: recombinant; tags: N-terminal trigger factor (TF) fusion, pCold-TF; label: 5' Alexa647; single strand

B1: 37-nt ssRNA (ssRNA)
RNA: UCCGUCCGUCUGCUGUGGGUCUCCUUUCUCCUUCUUC
- binding result: binds
